Test results: paper doi:10.1101/2021.02.24.432666 (bioRxiv, 2021)
“And” between values parts separate entries of the source, which are not always exact repeats. Equal values may be shown once. Read-outs that look alike come from different tables or passages of the source.

What was measured:
cryo-EM structure [1] = molecular target: the molecule itself; test: cryo-EM structure
cryo-EM structure [2] = molecular target: the molecule itself; test: cryo-EM structure; remark: listed apart in the source
[3] = molecular target: the molecule itself; test: SEC + other: negative-staining electron microscopy
[4] = molecular target: the molecule itself; test: negative-staining electron microscopy

Row | Protein | stoichiometry N (cryo-EM structure [1]) | binding result [3] | also measured
1 | yeast TRiC subunit CCT1 (natural protein) not shown | 8 subunits per ring (double ring) | – | stoichiometry N (cryo-EM structure [2]): 9 subunit pairs
2 | yeast TRiC subunit CCT6 (natural protein) not shown | 8 subunits per ring (double ring) and 9 subunits per ring (double ring) | – | stoichiometry N (cryo-EM structure [2]): 8 subunits per ring and 9 subunits per ring
3 | yeast TRiC subunit CCT3 (natural protein, UniProt P39077 1-534, looked up) MQAPVVFMNASQERTTGRQAQISNITAAKAVADVIRTCLGPKAMLKMLLDPMGGLVLTNDGHAILREIDVAHPAAKSMLELSRTQDEEVGDGTTTVIILAGEILAQCAPYLIEKNIHPVIIIQALKKALTDALEVIKQVSKPVDVENDAAMKKLIQASIGTKYVIHWSEKMCELALDAVKTVRKDLGQTVEGEPNFEIDIKRYVRVEKIPGGDVLDSRVLKGVLLNKDVVHPKMSRHIENPRVVLLDCPLEYKKGESQTNIEIEKEEDWNRILQIEEEQVQLMCEQILAVRPTLVITEKGVSDLAQHYLLKGGCSVLRRVKKSDNNRIARVTGATIVNRVEDLKESDVGTNCGLFKVEMIGDEYFSFLDNCKEPKACTIMLRGGSKDILNEIDRNLQDAMAVARNVMLSPSLSPGGGATEMAVSVKLAEKAKQLEGIQQWPYQAVADAMECIPRTLIQNAGGDPIRLLSQLRAKHAQGNFTTGIDGDKGKIVDMVSYGIWEPEVIKQQSVKTAIESACLLLRVDDIVSGVRKQE | – | binds | –
4 | yeast TRiC subunit CCT4 (natural protein, UniProt P39078 1-528, looked up) MSAKVPSNATFKNKEKPQEVRKANIIAARSVADAIRTSLGPKGMDKMIKTSRGEIIISNDGHTILKQMAILHPVARMLVEVSAAQDSEAGDGTTSVVILTGALLGAAERLLNKGIHPTIIADSFQSAAKRSVDILLEMCHKVSLSDREQLVRAASTSLSSKIVSQYSSFLAPLAVDSVLKISDENSKNVDLNDIRLVKKVGGTIDDTEMIDGVVLTQTAIKSAGGPTRKEKAKIGLIQFQISPPKPDTENNIIVNDYRQMDKILKEERAYLLNICKKIKKAKCNVLLIQKSILRDAVNDLALHFLSKLNIMVVKDIEREEIEFLSKGLGCKPIADIELFTEDRLGSADLVEEIDSDGSKIVRVTGIRNNNARPTVSVVIRGANNMIIDETERSLHDALCVIRCLVKERGLIAGGGAPEIEISRRLSKEARSMEGVQAFIWQEFASALEVIPTTLAENAGLNSIKVVTELRSKHENGELNDGISVRRSGTTNTYEEHILQPVLVSTSAITLASECVKSILRIDDIAFSR | – | binds | –
5 | yeast TRiC subunit CCT7 (natural protein, UniProt P42943 1-550, looked up) MNFGSQTPTIVVLKEGTDASQGKGQIISNINACVAVQEALKPTLGPLGSDILIVTSNQKTTISNDGATILKLLDVVHPAAKTLVDISRAQDAEVGDGTTSVTILAGELMKEAKPFLEEGISSHLIMKGYRKAVSLAVEKINELAVDITSEKSSGRELLERCARTAMSSKLIHNNADFFVKMCVDAVLSLDRNDLDDKLIGIKKIPGGAMEESLFINGVAFKKTFSYAGFEQQPKKFNNPKILSLNVELELKAEKDNAEVRVEHVEDYQAIVDAEWQLIFEKLRQVEETGANIVLSKLPIGDLATQFFADRNIFCAGRVSADDMNRVIQAVGGSIQSTTSDIKPEHLGTCALFEEMQIGSERYNLFQGCPQAKTCTLLLRGGAEQVIAEVERSLHDAIMIVKRALQNKLIVAGGGATEMEVSKCLRDYSKTIAGKQQMIINAFAKALEVIPRQLCENAGFDAIEILNKLRLAHSKGEKWYGVVFETENIGDNFAKFVWEPALVKINALNSATEATNLILSVDETITNKGSESANAGMMPPQGAGRGRGMPM | – | binds | –
6 | yeast TRiC subunit CCT8 (natural protein, UniProt P47079 1-568, looked up) MSLRLPQNPNAGLFKQGYNSYSNADGQIIKSIAAIRELHQMCLTSMGPCGRNKIIVNHLGKIIITNDAATMLRELDIVHPAVKVLVMATEQQKIDMGDGTNLVMILAGELLNVSEKLISMGLSAVEIIQGYNMARKFTLKELDEMVVGEITDKNDKNELLKMIKPVISSKKYGSEDILSELVSEAVSHVLPVAQQAGEIPYFNVDSIRVVKIMGGSLSNSTVIKGMVFNREPEGHVKSLSEDKKHKVAVFTCPLDIANTETKGTVLLHNAQEMLDFSKGEEKQIDAMMKEIADMGVECIVAGAGVGELALHYLNRYGILVLKVPSKFELRRLCRVCGATPLPRLGAPTPEELGLVETVKTMEIGGDRVTVFKQEQGEISRTSTIILRGATQNNLDDIERAIDDGVAAVKGLMKPSGGKLLPGAGATEIELISRITKYGERTPGLLQLAIKQFAVAFEVVPRTLAETAGLDVNEVLPNLYAAHNVTEPGAVKTDHLYKGVDIDGESDEGVKDIREENIYDMLATKKFAINVATEAATTVLSIDQIIMAKKAGGPRAPQGPRPGNWDQED | – | binds | –
7 | yeast TRiC subunit CCT2 (natural protein) MSVQIFGDQVTEERAENARLSAFVGAIAVGDLVKSTLGPKGMDKLLQSASSNTCMVTNDGATILKSIPLDNPAAKVLVNISKVQDDEVGDGTTSVTVLSAELLREAEKLIDQSKIHPQTIIEGYRLASAAALDALTKAAVDNSHDKTMFREDLIHIAKTTLSSKILSQDKDHFAELATNAILRLKGSTNLEHIQIIKILGGKLSDSFLDEGFILAKKFGNNQPKRIENAKILIANTTLDTDKVKIFGTKFKVDSTAKLAQLEKAEREKMKNKIAKISKFGINTFINRQLIYDYPEQLFTDLGINSIEHADFEGVERLALVTGGEVVSTFDEPSKCKLGECDVIEEIMLGEQPFLKFSGCKAGEACTIVLRGATDQTLDEAERSLHDALSVLSQTTKETRTVLGGGCAEMVMSKAVDTEAQNIDGKKSLAVEAFARALRQLPTILADNAGFDSSELVSKLRSSIYNGISTSGLDLNNGTIADMRQLGIVESYKLKRAVVSSASEAAEVLLRVDNIIRARPRTANRQHM | 8 subunits per ring (double ring) | – | –
8 | yeast CCT5 with the N-terminal 24 amino acids truncated (CCT5^ΔNT) (domain or fragment, UniProt P40413 25-562, looked up) MGRPFIIVKDQGNKKRQHGLEAKKSHILAARSVASIIKTSLGPRGLDKILISPDGEITITNDGATILSQMELDNEIAKLLVQLSKSQDDEIGDGTTGVVVLASALLDQALELIQKGIHPIKIANGFDEAAKLAISKLEETCDDISASNDELFRDFLLRAAKTSLGSKIVSKDHDRFAEMAVEAVINVMDKDRKDVDFDLIKMQGRVGGSISDSKLINGVILDKDFSHPQMPKCVLPKEGSDGVKLAILTCPFEPPKPKTKHKLDISSVEEYQKLQTYEQDKFKEMIDDVKKAGADVVICQWGFDDEANHLLLQNDLPAVRWVGGQELEHIAISTNGRIVPRFQDLSKDKLGTCSRIYEQEFGTTKDRMLIIEQSKETKTVTCFVRGSNKMIVDEAERALHDSLCVVRNLVKDSRVVYGGGAAEVTMSLAVSEEADKQRGIDQYAFRGFAQALDTIPMTLAENSGLDPIGTLSTLKSKQLKEKISNIGVDCLGYGSNDMKELFVVDPFIGKKQQILLATQLCRMILKIDNVIISGKDEY | – | – | binding result [4]: binds
